± gives the standard deviation of the averaged measurements.
System: ATP
Test: switch fluorescence ratio, 500 uM ATP over buffer (Cy3 cluster intensity, sum of 5 cycles each) (fold (ratio)); higher = stronger signal-on switching upon ATP binding; sequences stand for … in TCGTCGGCAGCGTCAGATGTGTATAAGAGACAGTTTTTTTTTTTTTTTTTTTTTTTTT…TC
Details: aptamer strand: ATP DNA aptamer (quencher-CACCTGGGGGAGTATTGCGGAGGAAGG + anchor), 100 nM annealed; ATP concentration: 500 uM
Summary of the method: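 The fluorescence ratio divides summed target-cycle Cy3 intensity by summed buffer-cycle Cy3 intensity for each cluster and is averaged per switch-domain sequence. Cy3-labelled switching-strand clusters on a modified Illumina MiSeq flow-cell were annealed to 100 nM quencher-labelled ATP aptamer, then imaged in selection buffer and again after 15 min with 500 uM ATP at 22 °C. Five such cycles were run, with NaOH stripping and re-annealing between them, and clusters outside 100-1000 RFU were excluded.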
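Note: ATP exposure 15 min at 22 °C before imaging.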

| Sequence | switch fluorescence ratio |
| --- | --- |
| TGTTAAGGGC | 1 ± 0.039 |
| GGGTTGCCGT | 0.977 ± 0.036 |
| CTAAATAGCA | 1.01 ± 0.016 |
| TTCTTTGACG | 1.09 ± 0.077 |
| TAAATCCTGG | 0.961 ± 0.023 |
| CCATGGTTAC | 2.67 ± 2.3 |
| TTACCGTCGC | 1.037 ± 0.0027 |
| ACGCTCAGGT | 1.29 ± 0.041 |
| ACGATCTGTG | 1.03 ± 0.033 |
| GGGTGGCCAA | 0.981 ± 0.012 |
| AGTGGTGATC | 1.04 ± 0.018 |
| ATTGCTGTAC | 1.56 ± 0.048 |
| TTATGTGAGT | 0.972 ± 0.0085 |
| GGATTGGTCC | 1.14 ± 0.16 |
| ATGTGTCCT | 1.016 ± 0.0039 |
| ATGAGAGGAT | 0.9797 ± 0.0026 |
| GCAATTCTAC | 3.085 ± 0.025 |
| ATGTTAGTGA | 0.979 ± 0.042 |
| GGTCGAGAGG | 0.971 ± 0.03 |
| TGGATGGGAG | 0.9922 ± 0.0028 |
| ATGGTGGGTG | 1.03 ± 0.046 |

| Sequence | switch fluorescence ratio |
| --- | --- |
| TTAAGCGGGA | 1.01 ± 0.015 |
| TTGTAATTAC | 1.3 ± 0.44 |
| AAAGGGCGGG | 1.016 ± 0.0049 |
| TTTTGGTAGC | 1.01 ± 0.017 |
| AGTTGGGATT | 1.032 ± 0.01 |
| TTCGTACGTA | 1 ± 0.06 |
| ATTAGGTTAT | 1 ± 0.048 |
| GTCATTGGGT | 0.99 ± 0.021 |
| GACTGAGAGT | 1 ± 0.054 |
| TTCGTAAGGG | 1.012 ± 0.01 |
| AAAACTATTT | 0.9865 ± 0.0064 |
| TGGGGCTACA | 0.983 ± 0.056 |
| CGGGGCAGAG | 0.991 ± 0.043 |
| AATTTCGGAC | 1.07 ± 0.071 |
| TGAAGAAAGT | 0.998 ± 0.032 |
| GGAGAATGCC | 1.04 ± 0.053 |
| TGCGGCGGGG | 1.07 ± 0.035 |
| ATTTGCGGAG | 1.002 ± 0.0057 |
| CGAGGGGGAG | 1.004 ± 0.0097 |
| GTAGGGGCCT | 1.057 ± 0.0073 |
| TCGGAGGA | 1.03 ± 0.048 |
